Results reported in article PMC3972757.

How the values were obtained:
[1] = molecular target: catalytic domain of AMSH, AMSH 219-424 E280A (human) (UniProt O95630); assay: ITC
[2] = molecular target: catalytic domain of AMSH, AMSH 219-424 E280A (human) (UniProt O95630); assay: AUC
ubiquitin (Homo sapiens) = ubiquitin (Homo sapiens) (UniProt P0CG48); assay: biosensor; details: cited from earlier work

Chain of catalytic domain of AMSH, AMSH 219-424 E280A (human) (O95630 219-424 E280A): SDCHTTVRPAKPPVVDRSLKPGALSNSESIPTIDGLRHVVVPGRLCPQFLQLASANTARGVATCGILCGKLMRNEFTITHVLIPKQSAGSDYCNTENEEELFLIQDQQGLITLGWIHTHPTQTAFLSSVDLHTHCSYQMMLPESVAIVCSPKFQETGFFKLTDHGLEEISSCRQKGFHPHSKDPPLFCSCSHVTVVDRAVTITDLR
Chain of STAM UIM (Q92783 168-193): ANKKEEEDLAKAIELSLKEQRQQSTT

Kd [1] | dH [1] | stoichiometry N [2] | Substance | Kd (ubiquitin (Homo sapiens))
1.4 µM | -15.1 kcal/mol | 1 | SH3 domain of STAM2 (from UniProt O75886 202-261) (domain or fragment) | –
– | – | – | STAM UIM (from UniProt Q92783) | 182 µM
